The record followed here is PMC13043311, “2′-O-Methyl-guanosine RNA fragments antagonize TLR7 and TLR8 to limit autoimmunity”.

Data set [1] addresses Macaca mulatta TLR7 (mmTLR7) ectodomain (Macaca mulatta). The data set can be described thus: cryo-EM structure; TLR7 in complex with mGrUrC^PO; resolution 2.9 Å.
Data set [2] has the same target. The data set can be described thus: cryo-EM structure; TLR7 in complex with mGrArA^PS (mixture of four PS stereoisomers); resolution 2.7 Å.
Data set [3] shares this target. The data set can be described thus: cryo-EM structure; mmTLR7 ectodomain in the presence of GUC-v1^PS (mGmUdC^PS, mixture of RR, RS, SR and SS configurations); overall resolution 3.0 Å.
The target of data set [4] is T1, TLR8 WT (hTLR8) (human, UniProt Q9NR97 27-827).
T1 sequence: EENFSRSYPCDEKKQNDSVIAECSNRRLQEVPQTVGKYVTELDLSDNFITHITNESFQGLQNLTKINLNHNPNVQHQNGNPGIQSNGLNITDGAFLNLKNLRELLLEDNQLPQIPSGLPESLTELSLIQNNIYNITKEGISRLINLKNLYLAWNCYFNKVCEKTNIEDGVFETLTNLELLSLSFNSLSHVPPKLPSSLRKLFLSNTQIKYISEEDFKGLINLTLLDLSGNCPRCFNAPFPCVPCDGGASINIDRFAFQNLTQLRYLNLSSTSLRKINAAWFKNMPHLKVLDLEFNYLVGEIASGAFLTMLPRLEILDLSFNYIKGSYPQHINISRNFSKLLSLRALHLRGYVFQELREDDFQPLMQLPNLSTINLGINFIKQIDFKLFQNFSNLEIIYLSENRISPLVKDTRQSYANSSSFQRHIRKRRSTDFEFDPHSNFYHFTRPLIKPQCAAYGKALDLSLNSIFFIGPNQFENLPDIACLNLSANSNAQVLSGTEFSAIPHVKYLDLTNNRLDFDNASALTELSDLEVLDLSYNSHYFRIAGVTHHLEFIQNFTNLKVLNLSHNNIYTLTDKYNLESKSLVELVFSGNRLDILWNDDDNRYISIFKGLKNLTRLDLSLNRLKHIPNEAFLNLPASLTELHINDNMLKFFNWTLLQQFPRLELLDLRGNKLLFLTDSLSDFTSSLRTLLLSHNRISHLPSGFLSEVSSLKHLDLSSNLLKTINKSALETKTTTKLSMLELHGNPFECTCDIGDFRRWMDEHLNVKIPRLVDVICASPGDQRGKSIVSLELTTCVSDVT
The data set can be described thus: SPR; negligible binding; SPR with recombinant TLR7/TLR8; buffer, pH and temperature not in the material. Conditions: protein: recombinant; chain copies: 2; single-stranded. (SPR reads the build-up and loss of mass on a sensor chip optically.)

The target of data set [5] is T2, TLR7 WT (mmTLR7) (Macaca mulatta, UniProt B3Y653 27-839).
T2 sequence: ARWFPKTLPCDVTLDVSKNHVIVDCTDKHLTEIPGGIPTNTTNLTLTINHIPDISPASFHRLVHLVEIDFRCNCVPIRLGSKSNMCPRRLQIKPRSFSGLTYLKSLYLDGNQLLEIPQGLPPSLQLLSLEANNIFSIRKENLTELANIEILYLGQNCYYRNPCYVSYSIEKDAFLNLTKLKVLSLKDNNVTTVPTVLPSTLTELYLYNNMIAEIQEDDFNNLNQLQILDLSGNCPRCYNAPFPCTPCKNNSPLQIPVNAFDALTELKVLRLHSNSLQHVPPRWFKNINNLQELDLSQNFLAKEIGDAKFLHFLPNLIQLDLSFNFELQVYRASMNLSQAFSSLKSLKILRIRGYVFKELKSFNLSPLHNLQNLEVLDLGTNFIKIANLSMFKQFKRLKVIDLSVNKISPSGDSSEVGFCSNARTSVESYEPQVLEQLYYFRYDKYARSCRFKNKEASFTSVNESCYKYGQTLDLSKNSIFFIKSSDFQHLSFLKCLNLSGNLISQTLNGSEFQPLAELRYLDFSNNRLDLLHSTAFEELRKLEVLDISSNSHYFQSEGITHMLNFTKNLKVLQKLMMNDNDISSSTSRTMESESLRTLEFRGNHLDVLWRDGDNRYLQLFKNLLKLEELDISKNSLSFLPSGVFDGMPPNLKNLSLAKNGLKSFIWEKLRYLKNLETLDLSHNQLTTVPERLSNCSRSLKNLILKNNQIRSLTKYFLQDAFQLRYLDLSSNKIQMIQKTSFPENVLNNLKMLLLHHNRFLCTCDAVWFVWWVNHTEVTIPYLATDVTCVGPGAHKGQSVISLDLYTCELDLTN
The data set is described as above. Conditions: protein: recombinant; chain copies: 2; single-stranded.

In data set [6] the target is T1, TLR8 WT (hTLR8). The data set can be described thus: SPR; average; runs 5±1, 7±1, 5±1, 12±3, 7±1, 11±2; SPR with recombinant TLR7/TLR8; buffer, pH and temperature not in the material. Conditions: protein: recombinant; chain copies: 2; single-stranded.
Data set [7] deals with T2, TLR7 WT (mmTLR7). The data set can be described thus: cryo-EM; stereoisomer mixture, modeled as SS; 2.7 A; buffer, pH and temperature not in the material. Conditions: protein: recombinant; chain copies: 2; single-stranded.
A further data set addresses T3, TLR8 F495S (human, UniProt Q9NR97 27-827, F495S).
T3 sequence: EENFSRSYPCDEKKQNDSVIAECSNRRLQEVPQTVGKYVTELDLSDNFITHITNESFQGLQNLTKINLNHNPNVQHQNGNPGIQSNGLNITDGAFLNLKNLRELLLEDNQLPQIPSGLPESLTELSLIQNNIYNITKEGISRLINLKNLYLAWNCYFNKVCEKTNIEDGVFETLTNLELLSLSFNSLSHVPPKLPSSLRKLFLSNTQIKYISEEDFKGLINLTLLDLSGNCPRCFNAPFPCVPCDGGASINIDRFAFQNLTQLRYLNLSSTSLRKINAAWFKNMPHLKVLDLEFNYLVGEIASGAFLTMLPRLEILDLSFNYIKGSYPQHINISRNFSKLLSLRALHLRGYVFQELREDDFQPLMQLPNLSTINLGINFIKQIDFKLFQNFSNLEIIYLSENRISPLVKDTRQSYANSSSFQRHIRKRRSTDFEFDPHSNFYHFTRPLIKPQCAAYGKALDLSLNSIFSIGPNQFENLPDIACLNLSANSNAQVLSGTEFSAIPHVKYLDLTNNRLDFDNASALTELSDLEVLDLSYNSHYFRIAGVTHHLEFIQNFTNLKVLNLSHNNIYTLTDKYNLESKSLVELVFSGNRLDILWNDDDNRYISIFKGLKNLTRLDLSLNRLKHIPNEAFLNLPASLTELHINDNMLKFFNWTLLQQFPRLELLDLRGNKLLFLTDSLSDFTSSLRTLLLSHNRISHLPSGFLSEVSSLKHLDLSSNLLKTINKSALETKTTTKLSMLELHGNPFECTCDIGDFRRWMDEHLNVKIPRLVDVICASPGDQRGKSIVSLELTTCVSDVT
The data set can be described thus: SPR; no binding observed; SPR with recombinant TLR7/TLR8; buffer, pH and temperature not in the material. The note with it: protein: recombinant; chain copies: 2; single-stranded.

For data set [8], the target named is T1, TLR8 WT (hTLR8). The data set can be described thus: SPR; mean computed from runs 1.8±0.2, 1.8±0.2, 1.5±0.2; SPR with recombinant TLR7/TLR8; buffer, pH and temperature not in the material. The note with it: protein: recombinant; chain copies: 2; single-stranded.
For the next data set, the target named is T4, TLR8 I403S (human, UniProt Q9NR97 27-827, I403S).
T4 sequence: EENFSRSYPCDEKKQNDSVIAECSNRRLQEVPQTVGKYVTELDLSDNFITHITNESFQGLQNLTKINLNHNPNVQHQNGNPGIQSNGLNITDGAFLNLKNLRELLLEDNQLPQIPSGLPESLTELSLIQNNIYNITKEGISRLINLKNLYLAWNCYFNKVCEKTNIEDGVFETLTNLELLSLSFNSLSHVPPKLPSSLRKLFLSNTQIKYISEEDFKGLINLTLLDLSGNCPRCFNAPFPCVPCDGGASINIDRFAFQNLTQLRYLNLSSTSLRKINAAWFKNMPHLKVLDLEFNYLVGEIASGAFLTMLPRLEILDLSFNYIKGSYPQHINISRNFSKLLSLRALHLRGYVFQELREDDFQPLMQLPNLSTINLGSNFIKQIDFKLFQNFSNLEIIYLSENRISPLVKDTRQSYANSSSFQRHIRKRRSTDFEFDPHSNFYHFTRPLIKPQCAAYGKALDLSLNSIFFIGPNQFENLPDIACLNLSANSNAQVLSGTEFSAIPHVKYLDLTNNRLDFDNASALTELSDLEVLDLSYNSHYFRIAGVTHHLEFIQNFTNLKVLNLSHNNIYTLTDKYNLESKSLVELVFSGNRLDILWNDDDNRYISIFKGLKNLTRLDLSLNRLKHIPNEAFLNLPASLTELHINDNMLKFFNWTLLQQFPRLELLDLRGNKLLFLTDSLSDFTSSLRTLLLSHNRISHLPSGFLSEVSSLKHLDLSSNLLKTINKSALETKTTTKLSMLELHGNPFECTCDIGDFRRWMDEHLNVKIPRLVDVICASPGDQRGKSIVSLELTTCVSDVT
The data set can be described thus: SPR; mean computed from runs 7.6±0.5, 9.7±0.9, 7.5±0.3; SPR with recombinant TLR7/TLR8; buffer, pH and temperature not in the material. Conditions: protein: recombinant; chain copies: 2; single-stranded.

For data set [9], the target named is T1, TLR8 WT (hTLR8). The data set can be described thus: SPR; control of the nucleoside series; mean computed from runs 1.4±0.9, 1.5±0.09, 1.6±0.1; SPR with recombinant TLR7/TLR8; buffer, pH and temperature not in the material. Conditions: protein: recombinant; chain copies: 2; single-stranded.
In data set [10] the target is T1, TLR8 WT (hTLR8). The data set can be described thus: SPR; not detected; SPR with recombinant TLR7/TLR8; buffer, pH and temperature not in the material. The note with it: protein: recombinant; chain copies: 2; single-stranded.
Data set [11] addresses T2, TLR7 WT (mmTLR7). The data set can be described thus: SPR; average; runs 7±2, 7±1, 6±1, 4±2, 4±2; SPR with recombinant TLR7/TLR8; buffer, pH and temperature not in the material. The note with it: protein: recombinant; chain copies: 2; single-stranded.
For data set [12], the target named is T1, TLR8 WT (hTLR8). The data set can be described thus: SPR; average; runs 3±1, 4±1, 5±1, 3±0.4, 4±1, 4±1; SPR with recombinant TLR7/TLR8; buffer, pH and temperature not in the material. Conditions: protein: recombinant; chain copies: 2; single-stranded.
The target in data set [13] is T2, TLR7 WT (mmTLR7). The data set can be described thus: SPR; average stated in text; table runs 38±2, 32±2, 30±1, 20±11, 11±1 (mean 26.2); SPR with recombinant TLR7/TLR8; buffer, pH and temperature not in the material. Conditions: protein: recombinant; chain copies: 2; single-stranded.

The term stoichiometry N denotes a count of units in the complex or per binding partner. With “Macaca mulatta TLR7 (mmTLR7) ectodomain (receptor)”, the stoichiometry N in [1], in data set [2] and in data set [3] was 2 throughout.

Consider GTC (XNA, DNA G1, DNA T2, 2'-OMe C3; phosphorothioate linkages, stereo-random) [GUC-v6 PS (dGdTmC)], for which the binding result with TLR8 WT (hTLR8) [4] and with TLR7 WT (mmTLR7) [5] was “no binding” throughout.

By Kd is commonly meant the concentration at which binding is half-saturated. Take GCC (XNA, 2'-OMe G1, DNA C2, DNA C3; phosphorothioate linkages, stereo-random) [GCC-v4 PS (mGdCdC)]: the binding result with TLR7 WT (mmTLR7) [5] is given as “no binding”. In the data set with TLR8 WT (hTLR8) [6], the Kd came out at 8 µM.

For the molecule GAA (XNA, 2'-OMe G1, RNA A2 A3; phosphorothioate linkages, stereo-random) [mGrArA PS], the values for the binding result in the data set with TLR7 WT (mmTLR7) [7] and with TLR8 F495S were “binds” and “no binding”, respectively. Further, the dissociation constant Kd with TLR8 WT (hTLR8) [8] is 1.7 µM; with TLR8 I403S, 8.27 µM; with TLR8 WT (hTLR8) [9], 1.5 µM.

Consider GUC (XNA, 2'-OMe G1, 2'-OMe U2, DNA C3; phosphorothioate linkages, stereo-random) [GUC-v1 PS (mGmUdC)], for which, in the data set with TLR8 WT (hTLR8) [10], the binding result is reported as “no binding”. Moreover, the Kd with TLR7 WT (mmTLR7) [11] worked out at 5.6 µM.

Regarding GAG (XNA, 2'-OMe G1, 2'-OMe A2, DNA G3; phosphorothioate linkages, stereo-random) [GAG-v1 PS (mGmAdG)], the figures for the Kd with TLR8 WT (hTLR8) [12] and in the data set with TLR7 WT (mmTLR7) [13] were 4 µM and 20.2 µM, respectively.
